Experimental findings from the FLAb antibody collection (doi:10.7554/elife.23156) are described below.

B1: scFv; the commonest letter at each place (parent)
chain 1: EVKLDETGGGLVQPGRPMKLSCVASGFTFSDYWMNWVRQSPEKGLEWVAQIRNKPYNYETYYSDSVKGRFTISRDDSKSSVYLQMNNLRVEDMGIYYCTGSYYGMDYWGQGTSVTVS
chain 2: DVVMTQTPLSLPVSLGDQASISCRSSQSLVHSNGNTYLRWYLQKPGQSPKVLIYKVSNRFSGVPDRFSGSGSGTDFTLKISRVEAEDLGVYFCSQSTHVPWTFGGGTKLEIK

Variants of B1 are the subject of the data set “fluorescein”. In words: Kd (Tite-Seq). The note with it: with fluorescein; format: scFv 4-4-20, heavy + light.
Data set [1] covers variants of B1. In words: yeast surface expression (ratio to wild type); higher = more expressed. The following applies: format: scFv 4-4-20, heavy + light.

For orientation: Kd means a measure of binding affinity in units of concentration. Take chain 1 D31F N35S: in the data set with fluorescein, the Kd was ≥ 10 µM. For the same variant, the yeast surface expression in data set [1] came to 0.367.
In the same order, the values of chain 1 D31F N35I are ≥ 10 µM and 1.11.
As for chain 1 D31N M34A, the Kd with fluorescein is 0.00194 µM. Also, the yeast surface expression in data set [1] came out at 0.614.
In the same order, the values of chain 1 D31V W36G are ≥ 10 µM and 2.19.
In the same order, the values of chain 1 D106L W108M are ≥ 10 µM and 0.541.
In the same order, the values of chain 1 D106L W108C are ≥ 10 µM and 0.234.
Turning to chain 1 D106L W108I, the Kd with fluorescein is ≥ 10 µM. Also, the yeast surface expression in data set [1] was 0.314.
In the same order, the values of chain 1 D31R M34S are ≥ 10 µM and 0.507.
In the same order, the values of chain 1 D31N N35S V37A are ≥ 10 µM and 0.656.
For chain 1 D31W W33G, in that order: 9.02 µM and 0.542.
With chain 1 D106I G109C, the Kd in the data set with fluorescein was ≥ 10 µM. Besides, the yeast surface expression in data set [1] was determined as 0.203.
In the same order, the values of chain 1 D31G V37N are 0.00785 µM and 0.512.
In the same order, the values of chain 1 D31A W33I are ≥ 10 µM and 0.872.
For chain 1 D31A W33L, in that order: ≥ 10 µM and 0.534.
Turning to chain 1 D31R W33S M34P, the Kd in the data set with fluorescein was ≥ 10 µM. Besides, in data set [1], the yeast surface expression was found to be 0.182.
For chain 1 D31C M34E, in the data set with fluorescein, the Kd is 0.579 µM. Also, the yeast surface expression in data set [1] worked out at 0.778.
For chain 1 D31C M34P, in that order: ≥ 10 µM and 0.56.
Consider chain 1 D31L Y32H N35V, for which the Kd with fluorescein is ≥ 10 µM. For the same variant, in data set [1], the yeast surface expression stood at 0.343.
On to chain 1 D31K W33I M34N, for which, in the data set with fluorescein, the dissociation constant (Kd) is ≥ 10 µM. In addition, in data set [1], the yeast surface expression was 0.395.
In the same order, the values of chain 1 D106C W108H are ≥ 10 µM and 0.583.
In the same order, the values of chain 1 D106C W108K are ≥ 10 µM and 0.314.
With chain 1 D31S V37H, the Kd in the data set with fluorescein amounted to 9.02 µM. Also, the yeast surface expression in data set [1] came out at 0.644.
For chain 1 D31S V37N, the Kd with fluorescein was ≥ 10 µM. Besides, in data set [1], the yeast surface expression worked out at 0.629.
In the same order, the values of chain 1 D31S V37P are ≥ 10 µM and 0.675.
In the same order, the values of chain 1 D106M are ≥ 10 µM and 0.574.
Regarding chain 1 D106K, the Kd with fluorescein is ≥ 10 µM. Also, the yeast surface expression in data set [1] was found to be 0.415.
For chain 1 D106P, in that order: ≥ 10 µM and 0.635.
For chain 1 D106I, in that order: ≥ 10 µM and 0.577.
In the same order, the values of chain 1 D106E are 0.0221 µM and 1.1.
Take chain 1 D106L: the Kd in the data set with fluorescein was ≥ 10 µM. Further, the yeast surface expression in data set [1] stood at 0.466.
In the same order, the values of chain 1 D106C are 2.17 µM and 0.955.
In the case of chain 1 D106H, in the data set with fluorescein, the Kd is ≥ 10 µM. Besides, in data set [1], the yeast surface expression turned out to be 0.557.
In the same order, the values of chain 1 D106A are 2.96 µM and 0.694.
For chain 1 D106N, in that order: 0.00131 µM and 0.681.
For chain 1 D106F, in that order: ≥ 10 µM and 0.325.
As for chain 1 D106R, in the data set with fluorescein, the Kd is ≥ 10 µM. Also, the yeast surface expression in data set [1] came to 0.451.
For chain 1 D106Q, the Kd with fluorescein came to 5.66 µM. Moreover, the yeast surface expression in data set [1] came out at 0.846.
In the same order, the values of chain 1 D106G are ≥ 10 µM and 0.655.
For chain 1 D31V Y32L, in that order: 0.972 µM and 0.584.
In the same order, the values of chain 1 D31V Y32P are ≥ 10 µM and 0.759.
In the case of chain 1 D106H W108I, the Kd with fluorescein is ≥ 10 µM. The yeast surface expression in data set [1] is 0.67.
For chain 1 D31L V37F, in that order: 0.0507 µM and 0.743.
On to chain 1 D31L V37K, for which, in the data set with fluorescein, the equilibrium dissociation constant (Kd) was found to be 9.5 µM. The yeast surface expression in data set [1] is 0.686.
chain 1 D31A N35T V37S: the Kd with fluorescein was ≥ 10 µM. Further, the yeast surface expression in data set [1] stood at 0.281.
In the same order, the values of chain 1 D31Q N35L are ≥ 10 µM and 0.418.
For chain 1 D31S Y32W, in that order: ≥ 10 µM and 0.83.
For chain 1 D31S Y32F, in that order: 0.018 µM and 0.876.
Take chain 1 D31S Y32G: the Kd with fluorescein is 0.24 µM. In addition, in data set [1], the yeast surface expression worked out at 0.78.
For chain 1 D31S Y32C, in that order: 6.61 µM and 0.648.
In the same order, the values of chain 1 D106L G109S are ≥ 10 µM and 0.464.
For the variant chain 1 D106L G109H, the Kd with fluorescein is ≥ 10 µM. For the same variant, the yeast surface expression in data set [1] is 0.0932.
For chain 1 D106L G109C, in that order: ≥ 10 µM and 0.166.
In the same order, the values of chain 1 D31H V37I are 0.00062 µM and 0.799.
For chain 1 D31H V37Q, in that order: 0.00128 µM and 0.928.
As for chain 1 D31T W36C, the Kd with fluorescein was ≥ 10 µM. Further, the yeast surface expression in data set [1] was 0.789.
In the case of chain 1 D31I Y32F, the Kd with fluorescein is ≥ 10 µM. Also, in data set [1], the yeast surface expression was 0.369.
For chain 1 D31I Y32A, in that order: 0.00444 µM and 0.779.
For chain 1 D31N Y32L, in that order: 0.00546 µM and 0.878.
In the same order, the values of chain 1 D31N Y32M are 0.00672 µM and 0.945.
For chain 1 D31I W36E, in the data set with fluorescein, the Kd is ≥ 10 µM. Besides, the yeast surface expression in data set [1] is 0.663.
In the same order, the values of chain 1 D31G W33P are ≥ 10 µM and 0.569.
In the same order, the values of chain 1 D31G W33Q are ≥ 10 µM and 0.657.
For chain 1 D31P W33S, in that order: ≥ 10 µM and 0.352.
Consider chain 1 D31P W33F, for which, in the data set with fluorescein, the Kd was ≥ 10 µM. In addition, in data set [1], the yeast surface expression was determined as 0.78.
In the same order, the values of chain 1 D31L N35F are ≥ 10 µM and 0.446.
On to chain 1 D31F W33I, for which the Kd with fluorescein was ≥ 10 µM. In addition, the yeast surface expression in data set [1] came to 0.487.
chain 1 D31Q W33T: in the data set with fluorescein, the Kd was ≥ 10 µM. Moreover, the yeast surface expression in data set [1] stood at 0.793.
In the same order, the values of chain 1 D106N W108I are 0.00871 µM and 0.556.
Consider chain 1 D106N W108K, for which, in the data set with fluorescein, the Kd is ≥ 10 µM. The yeast surface expression in data set [1] turned out to be 0.446.
For chain 1 D106N W108Q, in that order: ≥ 10 µM and 0.453.
For chain 1 D31T V37W, in that order: 6.61 µM and 0.726.
For the variant chain 1 D31T V37S, the Kd with fluorescein is ≥ 10 µM. In data set [1], the yeast surface expression was determined as 0.269.
Regarding chain 1 D31T V37D, the Kd in the data set with fluorescein is ≥ 10 µM. Further, the yeast surface expression in data set [1] is 0.511.
For chain 1 D31Y M34K, in that order: 0.676 µM and 0.834.
For chain 1 D106N Y107F, in that order: 0.00361 µM and 0.715.
As for chain 1 D31L W36H, the Kd in the data set with fluorescein is ≥ 10 µM. The yeast surface expression in data set [1] is 0.82.
For chain 1 D31W W36E, in that order: ≥ 10 µM and 1.08.
Take chain 1 D31R Y32I: the Kd with fluorescein is ≥ 10 µM. Further, the yeast surface expression in data set [1] was 0.818.
In the same order, the values of chain 1 D31R Y32D are ≥ 10 µM and 0.643.
For chain 1 D31R Y32A, in that order: 0.0944 µM and 0.863.
In the same order, the values of chain 1 D31L W33D are ≥ 10 µM and 0.81.
As to chain 1 D31H M34Y, the Kd with fluorescein was 0.00279 µM. In addition, in data set [1], the yeast surface expression came out at 0.671.
For the variant chain 1 D31H M34Q, the Kd with fluorescein is ≥ 10 µM. Also, the yeast surface expression in data set [1] is 0.268.
For chain 1 D31C, in that order: 0.0747 µM and 0.608.
As to chain 1 D31T, in the data set with fluorescein, the Kd came to 0.00371 µM. Further, the yeast surface expression in data set [1] was 0.766.
For chain 1 D31N, in that order: 0.000825 µM and 1.1.
For the variant chain 1 D31P, the dissociation constant Kd in the data set with fluorescein is ≥ 10 µM. The yeast surface expression in data set [1] was determined as 0.853.
For chain 1 D31A, in that order: 0.00343 µM and 0.772.
Regarding chain 1 D31S, the Kd with fluorescein was found to be 0.00245 µM. The yeast surface expression in data set [1] came out at 0.902.
On to chain 1 D31F, for which the Kd in the data set with fluorescein worked out at 0.00547 µM. Further, the yeast surface expression in data set [1] was found to be 0.636.
For chain 1 D31K, in that order: 0.00154 µM and 0.867.
For chain 1 D31H, in that order: 0.00179 µM and 0.763.
In the same order, the values of chain 1 D31Q are 0.00258 µM and 0.877.
In the case of chain 1 D31Y, the Kd in the data set with fluorescein turned out to be 0.00334 µM. Moreover, the yeast surface expression in data set [1] worked out at 0.729.
For chain 1 D31G, in that order: 0.00166 µM and 0.887.
chain 1 D31V: in the data set with fluorescein, the Kd was ≥ 10 µM. The yeast surface expression in data set [1] turned out to be 0.515.
In the same order, the values of chain 1 D31E are 0.00278 µM and 0.925.
For chain 1 D31R, in that order: 0.00204 µM and 0.736.
In the same order, the values of chain 1 D31L are 0.00638 µM and 0.509.
chain 1 D31M: the Kd with fluorescein amounted to 0.00194 µM. In data set [1], the yeast surface expression was determined as 0.58.
In the same order, the values of chain 1 D31W are 0.00293 µM and 0.566.
In the same order, the values of chain 1 D31I are ≥ 10 µM and 0.531.
For chain 1 D106H G109K, in that order: ≥ 10 µM and 0.265.
Regarding chain 1 D106Q Y107I, the Kd in the data set with fluorescein is ≥ 10 µM. Also, in data set [1], the yeast surface expression stood at 0.712.
As for chain 1 D31E W36H, the Kd with fluorescein was ≥ 10 µM. The yeast surface expression in data set [1] was determined as 0.658.
For chain 1 D31E W36Q, in that order: ≥ 10 µM and 0.326.
For chain 1 D31C W33P, in that order: ≥ 10 µM and 0.671.
As for chain 1 D31C W33K, in the data set with fluorescein, the Kd turned out to be 3.74 µM. The yeast surface expression in data set [1] worked out at 0.675.
In the same order, the values of chain 1 D31C W33C are ≥ 10 µM and 0.579.
For chain 1 D31C W33G, in that order: ≥ 10 µM and 0.385.
For chain 1 D31T W33E, in that order: ≥ 10 µM and 0.544.
As for chain 1 D31T W33F, the Kd with fluorescein came out at 2.11 µM. In addition, in data set [1], the yeast surface expression amounted to 0.629.
For chain 1 D31T W33N, in that order: ≥ 10 µM and 0.661.
For the variant chain 1 D31T W33L, in the data set with fluorescein, the dissociation constant (Kd) was ≥ 10 µM. Further, the yeast surface expression in data set [1] came to 0.518.
For chain 1 D106A W108V, the Kd with fluorescein is ≥ 10 µM. The yeast surface expression in data set [1] came out at 0.529.
